Experimental findings from patent US5981229 are described below.

In this test the target is PlpA-PhoA fusion protein of strain SPRU98 (Streptococcus pneumoniae; E. coli).

Substance DsbA (from UniProt P0AEG4) (enzyme) returned an alkaline phosphatase activity of SPRU98 whole bacteria (activity units per mg of total protein) of 138.
